Legend:
[1] = target: gp41 of HIV-1IIIB (HIV-1IIIB) (UniProt P03377); experiment: cell-based or functional assay
[2] = target: gp41 of HIV-1 6794 (HIV-1 6794); experiment: cell-based or functional assay
CD20 (human) [3] = target: CD20 (human) (UniProt P11836); experiment: flow cytometry on Daudi cells, PE-anti-Fab
CD20 (human) [4] = target: CD20 (human) (UniProt P11836); experiment: Scatchard analysis, radio-iodinated sample on Raji cells; apparent association constant
CD20 (human) [5] = target: CD20 (human) (UniProt P11836); experiment: cell-based or functional assay

greater fluorescence intensity than veltuzumab (PE-anti-Fab) (CD20 (human) [3]) [%]	Ka (CD20 (human) [4]) [M⁻¹]	EC50, inhibition of proliferation of Daudi cells (4-d MTS assay) (CD20 (human) [5]) [pM]	EC50, inhibition of proliferation of Raji cells (4-d MTS assay) (CD20 (human) [5]) [pM]	EC50, inhibition of proliferation of Ramos cells (4-d MTS assay) (CD20 (human) [5]) [pM]	Substance	EC50 estimated, neutralization of HIV-1IIIB in Jurkat T cells, 50TCID50 [1] [pM]	EC50 estimated, neutralization of HIV-1 6794 in PBMCs, 50TCID50 [2] [pM]	EC50 estimated, neutralization of HIV-1 6794 in PBMCs, 100TCID50 [2] [pM]	EC50 estimated, neutralization of HIV-1IIIB in Jurkat T cells, 100TCID50 [1] [pM]	EC50, viable cell counting assay, Ramos, 3 days (CD20 (human) [5]) [pM]	inhibition of cell proliferation at 0.5 nmol/L, viable cell counting, Raji and Ramos (CD20 (human) [5]) [%]
					T20 HIV fusion inhibitor (enfuvirtide, FUZEON) (peptide)	9000	9000	9000			
					hLL2-(T20)4	< 200	< 200	< 200	100		
40 to 50	3.9e+08	150	64	150	Hex-hA20 (hexavalent anti-CD20 antibody, six Fabs with one Fc)					170	> 50
